Patent publication US20190352343A1 (AUCKLAND UNISERVICES, published 2019)

Legend:
[1] = biological target: Cpe0147^439-563 truncated protein domain (Clostridium perfringens); assay: SDS-PAGE, ester bond ligation in the presence of calcium
[2] = biological target: Cpe0147^439-563 truncated protein domain (Clostridium perfringens); assay: SDS-PAGE, ester bond ligation in the presence of glycerol

**Q.** Which results are given for Cpe0147^565-587 synthetic peptide?
**A.** percent of protein converted (ester bond formed) [1]: 40%; percent of protein converted (ester bond formed) [2]: 70%
